Assay results taken from patent US12006530B2, “Streptococcal proteases” (priority 2016, dated 2024).
“Also recorded” adds a separate entry of the source. Peptide text beside a SMILES is read from it. * marks the point of attachment. Cbz = O=C(OCc1ccccc1)*; CHN2 = [N-]=[N+]=C*

B1: IgdEporcinus: IgdE isolated from S. porcinus strain DSM20725, SEQ ID NO: 5 (protein, listed as Streptococcus porcinus)
chain: AVLARENSNSGQLHPEARQIKAVDFQEFSKKLKEEISENQQFHVFKLGMNNYYRSGIRINELNNLATEHDFILVNDHASHKKYDVPHIFIMNKGDVIVPSKEKYDEQMREVKFAGDQPNAQRQRIHALFEIGLDSNKRQLLNAAGLGTAENTLAKVDGFTIYSHGLTVDNKYYEDYIRFNKNENINITKERFTANDNLIHNLITESTAKVQTNDRDKVKAFVMYVANHTIYDWIAANNAVSNISDVNYYLGSDLFSITERKKAMCVGFSTTAARAFNMLGIPAYVVVGKNAQGVDHATARAYYNGKWHTIDGTGFINDKASRSTIYSENHFYSIGEDSYNIVDVNDEQIAFDKNYMKIDKVFEEWAQKQPTADLLLINKDKSLVPSNYVAYVAPVIVDNNRKGSLTQIYQNLKQVMESSSQKASLTSLLNTATADIAKLQTSSQLTQEDYNQIQNSMKSVLSFFWQLDKDSATNFENSEDYKKYLTETKNAGN
B2: IgdEpseudoporcinus: IgdE isolated from S. pseudoporcinus strain ATCC BAA-1381, SEQ ID NO: 9 (protein, listed as Streptococcus pseudoporcinus)
chain: RENENVRQLQSENKQMKAVNLQEFSEKLKGEIAENQQFHIFKLGLNNYYIGGVRINELSDLAKNHDFIMIDNRATHNKYGVPHIIIMNKDDVIVHNQEDYNKEMAELTFAGDKPIQSDSYLPQKKRIHALFEIGLDSNRRQLLNAAGLKTPENSVIELDTFKIYSHGLAVDNKYYDEYSHFNNNTNVNITKQRFTENDNLIHNLITTSTAKDQPTDRDKVKTFVMYVANHTIYDWNAANNAVSNISDVNYYLGSDLFSITERKKAMCVGFSTTAARAFNMLGIPAYVVEGKNAQGVDHATARVYYNGKWHTIDGTGFINGNRTRSTLYTESHFRSVGEDSYQLVGLNEDIPFDRNYMKIDKVYEEWAPKQKTADLLLVNKDKSLVGLDRVAYVEPVYVDKNRQDALTQIYKKLKETMESSSKKNPSSGGFSSLLGSASSDIAKLEGSSQLTQEEYDKIHRSMTSILTFFAQLDKDAAEAFEKGNDYKNYLATTKHAQ

Tests used:
[1] = test system: IgG degradation activity in culture supernatant of S. suis strain 10; assay: Inhibitor profile of IgG degradation activity in S. suis culture supernatant, anti-IgG Western blot; format: biochemical, Streptococcus suis; details: for IgG cleavage product in presence of inhibitor: inhibitor 0.1-5 mM, concentrated (10×) supernatant of strain 10, porcine plasma; for IgG cleaving activity in the presence of class specific protease inhibitors: protease enriched ammonium sulfate precipitates of S. suis culture supernatant, porcine plasma
Experimental: Concentrated (10×) culture supernatant of S. suis strain 10 was incubated with porcine plasma in presence of class specific protease inhibitors. The reaction was analyzed by anti-IgG western blot under reducing conditions.
To monitor IgG cleavage activity in concentrated and fractionated culture supernatants, samples were incubated with 1% porcine plasma in PBS for 16 h at 37° C. prior to Western blot analyses.
To identify the catalytic type of the IgG protease, the IgG degradation reaction was performed in the presence of 0.1-5 mM AEBSF (Sigma), 0.1-5 mM EDTA, 50-250 μM E-64 (Sigma), 0.1-5 mM Z-LVG-CHN2 (Bachem), 0.1-5 mM Iodoacetamide (Sigma) or 1/200 to 1/50 dilution of complete protease inhibitor cocktail (Roche).
(§1) Samples for SDS-PAGE were prepared with either reducing or non-reducing sample buffer and heated to 95° C. for 5 min. 12% SDS-PAGE was either stained with Coomassie blue (Sigma), Coomassie Fluor™ Orange Protein Gel Stain (Invitrogen) or blotted to Hybond-P PVDF membrane (GE Healthcare) for western blot analyses. Membranes were blocked with 5% dry milk powder in 0.1% PBS-Tween, followed by incubation with horse-radish peroxidase conjugated antibodies. Goat anti-pig IgG-HRP (Thermo Scientific) and goat anti-porcine IgM-HRP (Thermo Scientific) was diluted 1:25′000 and goat anti-porcine IgA-HRP (Thermo Scientific) was diluted 1:12′500. Membranes were thoroughly washed with 0.1% PBS-Tween prior to development with Amersham ECL Select Western blotting detection reagent (GE Healthcare) according to manufactures instruction and pictured by LAS4000 imaging system (Fujifilm).

S. suis IgdE^ΔC = assay: Inhibitor profile of purified recombinant IgdE^ΔC, quantitative IgG degradation analysis; format: biochemical, Streptococcus suis; details: porcine IgG
Experimental: The time course of cleavage (A) was monitored by continuous sampling prior to Coomassie fluor orange stained SDS-PAGE under reducing conditions followed by densitometric quantification of the cleavage product. 1.67 μM porcine IgG was incubated with 0.2 μM purified rIgdE^ac. Overnight cleavage (16 h) was set as 100% relative cleavage. For the inhibitor profile (B) initial cleavage in presence of 250 μM and 2.5 μM of each inhibitor was monitored. Initial cleavage activity of the uninhibited control was set as 100% relative activity. The DMSO control correlates to 250 μM Z-LVG-CHN2. Data are presented as mean±SEM of three experiments. Differences to the uninhibited control (*) or DMSO control (□) were analyzed by Dunnett's Multiple Comparison Test with significance set at P values of <0.05(*), <0.01(**) and <0.001(*** or □□□).
For time course analyses and inhibitor profiles the IgG degradation reaction was performed with 0.25 mg/ml porcine IgG and 2 μM purified IgdE^ΔC at 37° C. in PBS uninhibited or in the presence of 2.5 μM or […] AEBSF (Sigma), EDTA, E-64 (Sigma), lodoacetamide (Sigma), or Z-LVG-CHN2 (Bachem). DMSO (Sigma) at 0.275%, corresponding to the DMSO content in 250 µM Z-LVG-CHN2, was used as a solvent control. The reactions were continuously sampled and subjected to SDS-PAGE under reducing conditions. Protein bands were detected by staining with Coomassie Fluor™ Orange Protein Gel Stain (Invitrogen). The IgG degradation product was densitometrical quantified by imaging with LAS4000 imaging system (Fujifilm) and analyzed with Image Studio Version 3.1 (LI-COR Biosciences) software. Uninhibited over-night cleavage was set as 100% relative cleavage for the time course experiment. For the inhibitor profile the initial cleavage rate was calculated from the initial increase of cleavage product (0-25% relative cleavage) and the initial cleavage rate of the uninhibited reaction was set as 100% relative activity. Experiments were at least performed in triplicates. Statistical analyses were performed using GraphPad Prism Version 5.0.

porcine IgA = assay: Ig cleavage in porcine plasma or serum, anti-IgA Western blot; format: biochemical, pig
Experimental: (§2) (A) 2% porcine plasma was incubated with (+) or without (−) 10 nM purified rIgdE.
(§3) The reaction was analyzed by anti-porcine IgG, IgM and IgA Western blots under reducing conditions. Only cleavage of IgG was observed (*). (B) 0.5 mg/ml IgG of different species was incubated with (+) or without (−) 10 nM purified rIgdE and analyzed by SDS-PAGE under reducing conditions. No cleavage of IgG derived from any other species than pig (*) was observed. The weak protein band of 37 kDa is a contaminant present in lysate preparation (see lane 2) and not related to IgdE activity. Images of different gels have been assembled into one figure.
as §1, with “Membranes were thoroughly washed with 0.1% PBS-Tween prior to development with Amersham ECL Select Western blotting detection reagent (GE Healthcare) according to manufactures instruction and pictured by LAS4000 imaging system (Fujifilm).” left out

human IgG = assay: IgG cleavage by IgdE, SDS-PAGE; format: biochemical; details: purified polyclonal IgG, reducing SDS-PAGE
Experimental: (§4) (A) rIgdEagalactiae was incubated with polyclonal IgG of six different species for 18 h at 37° C. and analyzed by SDS-PAGE under reducing conditions. Degradation products are indicated by asterisks (*). Images of different gels have been used to create the figure. (B) rIgdEagalactiae was incubated with human or bovine serum for 18 h in 37° C. and analyzed by SDS-PAGE under reducing conditions. Degradation products are indicated by asterisks (*). (C) Western Blot with crude extracts of rIgdEagalactiae incubated with human and porcine serum for 18 h in 37° C. Membrane was treated with antibodies against human and porcine polyclonal IgG respectively. Degradation products are indicated by asterisks (*). (D) rIgdEagalactiae was incubated with subclasses of human IgG as well as human IgA and IgM for 18 h in 37° C. and analyzed by SDS-PAGE under reducing conditions. Degradation products are indicated by asterisks (*). Images of different gels have been used to create the figure.
(§5) 0.5 mg/ml of porcine IgG (Sigma) in PBS or of other species (human, goat, cow, horse and mouse; all Sigma) were incubated with either crude extracts of induced E. coli carrying S. suis IgdE constructs mentioned above or 10 nM purified rIgdE for 16 h at 37° C. prior subjection to SDS-PAGE under either reducing or non-reducing conditions.
as §1

IgG = IgG degrading cysteine protease activity: specificity as summarised; format: biochemical; details: summary statement
Description: Typically, polypeptides for use in accordance with the invention display immunoglobulin cysteine protease activity, and in particular IgG degrading cysteine protease activity. Preferably, the polypeptide cleaves IgG in the hinge region and more particularly in the hinge region of the heavy chain. Preferably, cleavage results in production of Fc and Fab fragments of IgG. Preferably the activity is specific for IgG. The IgG degrading cysteine protease activity may be determined by means of a suitable assay. For example, a test polypeptide may be incubated with IgG at a suitable temperature, such as 37° C. The starting materials and the reaction products may then be analysed by SDS PAGE to determine whether the desired IgG cleavage product is present. Typically this cleavage product is a 32 kDa fragment. Typically there is no further degradation of IgG after this first cleavage. The cleavage product may be subjected to N-terminal sequencing to verify that cleavage has occurred in the hinge region of IgG.
The IgG degrading cysteine protease activity of the polypeptides is generally IgG-specific in that the polypeptides may not degrade other classes of Ig, namely IgM, and IgA, when incubated with these immunoglobulins under conditions that permit cleavage of IgG.

porcine IgG [2] = assay: Ig cleavage in porcine plasma or serum, anti-IgG Western blot; format: biochemical, pig
Experimental: as §2, §3
as §1, with “Membranes were thoroughly washed with 0.1% PBS-Tween prior to development with Amersham ECL Select Western blotting detection reagent (GE Healthcare) according to manufactures instruction and pictured by LAS4000 imaging system (Fujifilm).” left out

mouse IgG = assay: IgG cleavage by IgdE, SDS-PAGE; format: biochemical; details: purified polyclonal IgG, reducing SDS-PAGE
Experimental: as §5, §1

cow IgG = assay: IgG cleavage by IgdE, SDS-PAGE; format: biochemical; details: purified polyclonal IgG, reducing SDS-PAGE
Experimental: as §5, §1

horse IgG = assay: IgG cleavage by IgdE, SDS-PAGE; format: biochemical; details: purified polyclonal IgG, reducing SDS-PAGE
Experimental: as §5, §1

goat IgG = assay: IgG cleavage by IgdE, SDS-PAGE; format: biochemical; details: purified polyclonal IgG, reducing SDS-PAGE
Experimental: as §5, §1

porcine IgG [3] = assay: IgG cleavage by IgdE, SDS-PAGE; format: biochemical, pig; details: purified polyclonal IgG, reducing SDS-PAGE
Experimental: (A) Schematic illustration of IgdE and the different rIgdE constructs with potential active site residues substitutions and the C-terminal truncation variant. The secretion signal peptide (residues 1-37) is marked in light grey, the transglutaminase domain is boxed and the potential active site residues and substitutions are indicated. (B) 3.3 μM porcine IgG was incubated for 16 h at 37° C. with soluble fractions of E. coli cells expressing different rIgdE constructs. The reaction was analyzed SDS-PAGE under reducing conditions. […] The weak protein band of 37 kDa is a contaminant present in lysate preparation and not related to IgdE activity.
as §5, §1

rat IgG = assay: IgG cleavage by IgdE, SDS-PAGE; format: biochemical; details: purified polyclonal IgG
IgG in human serum = assay: Ig cleavage in human serum, anti-IgG Western blot; format: biochemical
Experimental: as §4

[4] = 125 fold molar excess of inhibitor, 37° C., up to 18 h

Row | Molecule | IgG cleavage product in presence of inhibitor [1] | IgG cleaving activity in the presence of class specific protease inhibitors [1] | IgG proteolytic activity of purified IgdE^ΔC in presence of inhibitor (S. suis IgdE^ΔC; purified recombinant IgdE^ΔC, inhibitor at 250 μM and 2.5 μM per FIG. 3) | IgG proteolytic activity of purified IgdE^ΔC in presence of inhibitor (S. suis IgdE^ΔC; [4]) | cleavage of IgA in porcine plasma or serum (porcine IgA) | cleavage of polyclonal human IgG (32 kDa degradation product) (human IgG) | immunoglobulin specificity of the IgG degrading cysteine protease activity (IgG) | cleavage of IgG in porcine plasma or serum (porcine IgG [2]) | cleavage of polyclonal mouse IgG (mouse IgG) | cleavage of polyclonal cow IgG (cow IgG) | cleavage of polyclonal horse IgG (horse IgG) | cleavage of polyclonal goat IgG (goat IgG) | cleavage of polyclonal porcine IgG (32 kDa degradation product) (porcine IgG [3]) | cleavage of polyclonal rat IgG (rat IgG) | cleavage of IgG in human serum (IgG in human serum)
1 | O=C(O)CN(CCN(CC(=O)O)CC(=O)O)CC(=O)O [EDTA] | A cleavage product of IgG can be observed | did not affect IgG cleavage | fully active | – | – | – | – | – | – | – | – | – | – | – | –
2 | CC(C)CC(NC(=O)OCc1ccccc1)C(=O)NC(C(=O)NCC(=O)C=[N+]=[N-])C(C)C (stereo not drawn) [Z-LVG-CHN2] (Cbz-Leu-Val-Gly-CHN2; configuration not given here) | no degradation product was observed | appeared to inhibit IgG degrading activity | – | no cleavage product at all could be detected; also recorded: completely inhibited | – | – | – | – | – | – | – | – | – | – | –
3 | NC(=O)CI [iodoacetamide] | no degradation product was observed | appeared to inhibit IgG degrading activity | – | no cleavage product at all could be detected | – | – | – | – | – | – | – | – | – | – | –
4 | B1 | – | – | – | – | but not IgM or IgA | No degradation product was observed | specific for porcine IgG | cleaved IgG in porcine serum | No degradation product was observed | No degradation product was observed | No degradation product was observed | No degradation product was observed | cleaved | – | –
5 | B2 | – | – | – | – | – | cleaved | specific for porcine IgG | cleaved IgG in human and porcine serum | No degradation product was observed | No degradation product was observed | No degradation product was observed | No degradation product was observed | cleaved | No degradation product was observed | cleaved IgG in human and porcine serum
